This experiment concerns the target cation-independent mannose-6-phosphate receptor (CIMPR). The experiment in a line: CIMPR affinity chromatography with M6P elution gradient; spent cell culture medium before AEX product capture.

The results in this text go back to patent EP3436577B1.

“recombinant human α-galactosidase A (rhα-Gal A) (from UniProt P06280 32-429) (enzyme)” displayed a percent able to bind to the CIMPR of 80%.
